Assay results: patent US20150246947A1 (BAXALTA, published 2015)
Where “and” joins values, the source holds several entries; their conditions need not be identical. Identical values can stand only once. Non-standard residues stand in square brackets, D forms with d.

Target: T1, human Protein S (UniProt P07225 42-676)
T1 chain: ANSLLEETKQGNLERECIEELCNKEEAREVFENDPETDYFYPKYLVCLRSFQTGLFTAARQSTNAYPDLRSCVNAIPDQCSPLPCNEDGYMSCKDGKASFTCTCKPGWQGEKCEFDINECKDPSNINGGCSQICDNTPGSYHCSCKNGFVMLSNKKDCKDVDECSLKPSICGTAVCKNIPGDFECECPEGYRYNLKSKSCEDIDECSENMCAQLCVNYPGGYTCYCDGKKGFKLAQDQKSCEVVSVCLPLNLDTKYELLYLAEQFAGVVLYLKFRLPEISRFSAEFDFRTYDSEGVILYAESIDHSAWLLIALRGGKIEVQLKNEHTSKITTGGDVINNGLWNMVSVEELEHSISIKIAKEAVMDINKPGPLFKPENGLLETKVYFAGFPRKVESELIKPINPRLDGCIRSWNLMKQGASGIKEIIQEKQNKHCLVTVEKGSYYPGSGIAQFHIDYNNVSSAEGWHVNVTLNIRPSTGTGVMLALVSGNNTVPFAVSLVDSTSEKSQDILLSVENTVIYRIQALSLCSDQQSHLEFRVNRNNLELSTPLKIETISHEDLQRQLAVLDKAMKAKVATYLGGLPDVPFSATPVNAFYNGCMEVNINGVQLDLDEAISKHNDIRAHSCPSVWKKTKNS
Assay: LANCE competition
Summary of the method: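 This homogeneous time-resolved FRET competition assay (LANCE) used europium-labelled Protein S, ULight-labelled streptavidin and a biotinylated tracer peptide, with unlabelled test peptide titrated in three-fold steps. Final concentrations were 10 nM Protein S, 100 nM streptavidin and 300 nM tracer in 50 µl (or 2 nM Protein S and 60 nM tracer on a Tecan F500). Samples were incubated 1 hour at room temperature and read at Ex 340 nm, Em 665 nm. IC50 came from non-linear regression of the 665 nm signals.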

Ac-GAHVSAGWYDYNFDLYREFT-NH2 [JBS2683]
IC50: 5.6 nM

Ac-TGLVSAGWYDYNFDQYREFT-NH2 [JBS2847]
IC50: 5.4 nM

Ac-GAHVSAGWYDYNFDHYREFT-NH2 [JBS2681]
IC50: 18.7 nM

Ac-TGHVSAGWYDYNFDHYRE-NH2 [JBS2678]
IC50: 1810 nM

Ac-TGLVSAGWYDYNFDHYHEFT-NH2 [JBS2770]
IC50: 5.2 nM

Ac-TFHVSAGWYDYNFDHYREFT-NH2 [JBS2611]
IC50: 12.5 nM

Ac-FGHVSAGWYDYNFDHYREFT-NH2 [JBS2610]
IC50: 15.5 nM

Ac-TAHVSAGWYDYNFDLYREFT-NH2 [JBS2680]
IC50: 6 nM

Ac-GGHVSAGWYDYNFDLYREFT-NH2 [JBS2682]
IC50: 7.5 nM

Ac-GGHVSAGWYDYNADHYREFT-NH2 [JBS2684]
IC50: 12.5 nM

Ac-TGLVSAGWYDYNNDHYREFT-NH2 [JBS2825]
IC50: 4.4 nM

Ac-TAHVSAGWYDYNFDDYREFT-NH2 [JBS2679]
IC50: 30 nM

Ac-TGHVSAGWYDYNFDHYSEFT-NH2 [JBS2663]
IC50: 28.4 nM

Ac-TGLVSAGWYDYNFDVYREFT-NH2 [JBS2903]
IC50: 3.1 nM

Ac-EGYVSAGWYDYNTDTYYEFE-NH2 [JBS3222]
IC50: 1.5 nM

Ac-MGLVSAGWYDYNFDHYREFT-NH2 [JBS2794]
IC50: 4 nM and 5.6 nM

Ac-PGHVSAGWYDYNFDHYREFT-NH2 [JBS2628]
IC50: 27 nM

Ac-TGSVSAGWYDYNFDHYREFT-NH2 [JBS2650]
IC50: 25.1 nM

Ac-TGLVSAGWYDYNFDHYEEFT-NH2 [JBS2752]
IC50: 6.8 nM

Ac-TGLVSAGWYDYNMDHYREFT-NH2 [JBS2806]
IC50: 5.7 nM

Ac-TGLVSAGWYNYNFDHYREFT-NH2 [JBS2823]
IC50: 13.5 nM

B1: JBS2734 (peptide)
chain: Ac-TGLVSAGWYDYN[dA]DHYREFT-NH2
SMILES: CC(=O)N[C@H](C(=O)NCC(=O)N[C@@H](CC(C)C)C(=O)N[C@H](C(=O)N[C@@H](CO)C(=O)N[C@@H](C)C(=O)NCC(=O)N[C@@H](Cc1c[nH]c2ccccc12)C(=O)N[C@@H](Cc1ccc(O)cc1)C(=O)N[C@@H](CC(=O)O)C(=O)N[C@@H](Cc1ccc(O)cc1)C(=O)N[C@@H](CC(N)=O)C(=O)N[C@H](C)C(=O)N[C@@H](CC(=O)O)C(=O)N[C@@H](Cc1c[nH]cn1)C(=O)N[C@@H](Cc1ccc(O)cc1)C(=O)N[C@@H](CCCNC(=N)N)C(=O)N[C@@H](CCC(=O)O)C(=O)N[C@@H](Cc1ccccc1)C(=O)N[C@H](C(N)=O)[C@@H](C)O)C(C)C)[C@@H](C)O
IC50: 792 nM
